In patent US20200087373A1 (UNIVERSITY OF COPENHAGEN, published 2020):
Ends that are not written are not given here. * marks the point of attachment. C16 diacid = O=C(O)CCCCCCCCCCCCCCC(=O)*

T1: human GIP receptor (human, UniProt P48546 22-466)
T1 construct: whole, on cells; Transiently transfected COS-7 cells expressing the human GIP receptor; also called hGIPR
T1 sequence (looked up): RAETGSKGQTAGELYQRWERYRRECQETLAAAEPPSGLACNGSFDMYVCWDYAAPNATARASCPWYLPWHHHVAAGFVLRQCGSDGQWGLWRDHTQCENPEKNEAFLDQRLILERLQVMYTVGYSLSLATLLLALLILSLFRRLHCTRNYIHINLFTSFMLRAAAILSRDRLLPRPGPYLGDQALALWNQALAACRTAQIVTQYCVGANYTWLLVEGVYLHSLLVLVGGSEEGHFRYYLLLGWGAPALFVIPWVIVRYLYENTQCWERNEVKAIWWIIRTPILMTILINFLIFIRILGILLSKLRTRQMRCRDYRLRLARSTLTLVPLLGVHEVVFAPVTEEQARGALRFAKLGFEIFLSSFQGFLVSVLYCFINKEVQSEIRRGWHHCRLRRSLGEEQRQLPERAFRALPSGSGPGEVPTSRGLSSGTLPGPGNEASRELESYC

B1: AT156 [hGIP(5-30)NH2[H18K]-C16diacid/18] (peptide)
peptide: TFISDYSIAMDKIK(C16 diacid)QQDFVNWLLAQK-NH2
modifications: N-terminus assumed
SMILES: CC[C@H](C)[C@H](NC(=O)[C@H](CO)NC(=O)[C@H](Cc1ccc(O)cc1)NC(=O)[C@H](CC(=O)O)NC(=O)[C@H](CO)NC(=O)[C@@H](NC(=O)[C@H](Cc1ccccc1)NC(=O)[C@@H](N)[C@@H](C)O)[C@@H](C)CC)C(=O)N[C@@H](C)C(=O)N[C@@H](CCSC)C(=O)N[C@@H](CC(=O)O)C(=O)N[C@@H](CCCCN)C(=O)N[C@H](C(=O)N[C@@H](CCCCNC(=O)CCCCCCCCCCCCCCC(=O)O)C(=O)N[C@@H](CCC(N)=O)C(=O)N[C@@H](CCC(N)=O)C(=O)N[C@@H](CC(=O)O)C(=O)N[C@@H](Cc1ccccc1)C(=O)N[C@H](C(=O)N[C@@H](CC(N)=O)C(=O)N[C@@H](Cc1c[nH]c2ccccc12)C(=O)N[C@@H](CC(C)C)C(=O)N[C@@H](CC(C)C)C(=O)N[C@@H](C)C(=O)N[C@@H](CCC(N)=O)C(=O)N[C@@H](CCCCN)C(N)=O)C(C)C)[C@@H](C)CC
B2: AT170 [hGIP(5-30)NH2[S8K]-C16diacid/8] (peptide)
peptide: TFIK(C16 diacid)DYSIAMDKIHQQDFVNWLLAQK-NH2
modifications: N-terminus assumed
SMILES: CC[C@H](C)[C@H](NC(=O)[C@H](CO)NC(=O)[C@H](Cc1ccc(O)cc1)NC(=O)[C@H](CC(=O)O)NC(=O)[C@H](CCCCNC(=O)CCCCCCCCCCCCCCC(=O)O)NC(=O)[C@@H](NC(=O)[C@H](Cc1ccccc1)NC(=O)[C@@H](N)[C@@H](C)O)[C@@H](C)CC)C(=O)N[C@@H](C)C(=O)N[C@@H](CCSC)C(=O)N[C@@H](CC(=O)O)C(=O)N[C@@H](CCCCN)C(=O)N[C@H](C(=O)N[C@@H](Cc1c[nH]cn1)C(=O)N[C@@H](CCC(N)=O)C(=O)N[C@@H](CCC(N)=O)C(=O)N[C@@H](CC(=O)O)C(=O)N[C@@H](Cc1ccccc1)C(=O)N[C@H](C(=O)N[C@@H](CC(N)=O)C(=O)N[C@@H](Cc1c[nH]c2ccccc12)C(=O)N[C@@H](CC(C)C)C(=O)N[C@@H](CC(C)C)C(=O)N[C@@H](C)C(=O)N[C@@H](CCC(N)=O)C(=O)N[C@@H](CCCCN)C(N)=O)C(C)C)[C@@H](C)CC
B3: AT168 [hGIP(5-30)NH2[F6K]-C16diacid/6] (peptide)
peptide: TKISDYSIAMDKIHQQDFVNWLLAQK
modifications: C16-diacid (1,16-hexadecanedioic acid) on Lys at position 6 in GIP numbering (residue 2 of the entry); C-terminal amide
B4: AT172 [hGIP(5-30)NH2[Y10K]-C16diacid/10] (peptide)
peptide: TFISDK(C16 diacid)SIAMDKIHQQDFVNWLLAQK-NH2
modifications: N-terminus assumed
SMILES: CC[C@H](C)[C@H](NC(=O)[C@H](CO)NC(=O)[C@H](CCCCNC(=O)CCCCCCCCCCCCCCC(=O)O)NC(=O)[C@H](CC(=O)O)NC(=O)[C@H](CO)NC(=O)[C@@H](NC(=O)[C@H](Cc1ccccc1)NC(=O)[C@@H](N)[C@@H](C)O)[C@@H](C)CC)C(=O)N[C@@H](C)C(=O)N[C@@H](CCSC)C(=O)N[C@@H](CC(=O)O)C(=O)N[C@@H](CCCCN)C(=O)N[C@H](C(=O)N[C@@H](Cc1c[nH]cn1)C(=O)N[C@@H](CCC(N)=O)C(=O)N[C@@H](CCC(N)=O)C(=O)N[C@@H](CC(=O)O)C(=O)N[C@@H](Cc1ccccc1)C(=O)N[C@H](C(=O)N[C@@H](CC(N)=O)C(=O)N[C@@H](Cc1c[nH]c2ccccc12)C(=O)N[C@@H](CC(C)C)C(=O)N[C@@H](CC(C)C)C(=O)N[C@@H](C)C(=O)N[C@@H](CCC(N)=O)C(=O)N[C@@H](CCCCN)C(N)=O)C(C)C)[C@@H](C)CC
B5: AT171 [hGIP(5-30)NH2[D9K]-C16diacid/9] (peptide)
peptide: TFISK(C16 diacid)YSIAMDKIHQQDFVNWLLAQK-NH2
modifications: N-terminus assumed
SMILES: CC[C@H](C)[C@H](NC(=O)[C@H](CO)NC(=O)[C@H](Cc1ccc(O)cc1)NC(=O)[C@H](CCCCNC(=O)CCCCCCCCCCCCCCC(=O)O)NC(=O)[C@H](CO)NC(=O)[C@@H](NC(=O)[C@H](Cc1ccccc1)NC(=O)[C@@H](N)[C@@H](C)O)[C@@H](C)CC)C(=O)N[C@@H](C)C(=O)N[C@@H](CCSC)C(=O)N[C@@H](CC(=O)O)C(=O)N[C@@H](CCCCN)C(=O)N[C@H](C(=O)N[C@@H](Cc1c[nH]cn1)C(=O)N[C@@H](CCC(N)=O)C(=O)N[C@@H](CCC(N)=O)C(=O)N[C@@H](CC(=O)O)C(=O)N[C@@H](Cc1ccccc1)C(=O)N[C@H](C(=O)N[C@@H](CC(N)=O)C(=O)N[C@@H](Cc1c[nH]c2ccccc12)C(=O)N[C@@H](CC(C)C)C(=O)N[C@@H](CC(C)C)C(=O)N[C@@H](C)C(=O)N[C@@H](CCC(N)=O)C(=O)N[C@@H](CCCCN)C(N)=O)C(C)C)[C@@H](C)CC
B6: AT174 [hGIP(5-30)NH2[I12K]-C16diacid/12] (peptide)
peptide: TFISDYSK(C16 diacid)AMDKIHQQDFVNWLLAQK-NH2
modifications: N-terminus assumed
SMILES: CC[C@H](C)[C@H](NC(=O)[C@H](CCCCN)NC(=O)[C@H](CC(=O)O)NC(=O)[C@H](CCSC)NC(=O)[C@H](C)NC(=O)[C@H](CCCCNC(=O)CCCCCCCCCCCCCCC(=O)O)NC(=O)[C@H](CO)NC(=O)[C@H](Cc1ccc(O)cc1)NC(=O)[C@H](CC(=O)O)NC(=O)[C@H](CO)NC(=O)[C@@H](NC(=O)[C@H](Cc1ccccc1)NC(=O)[C@@H](N)[C@@H](C)O)[C@@H](C)CC)C(=O)N[C@@H](Cc1c[nH]cn1)C(=O)N[C@@H](CCC(N)=O)C(=O)N[C@@H](CCC(N)=O)C(=O)N[C@@H](CC(=O)O)C(=O)N[C@@H](Cc1ccccc1)C(=O)N[C@H](C(=O)N[C@@H](CC(N)=O)C(=O)N[C@@H](Cc1c[nH]c2ccccc12)C(=O)N[C@@H](CC(C)C)C(=O)N[C@@H](CC(C)C)C(=O)N[C@@H](C)C(=O)N[C@@H](CCC(N)=O)C(=O)N[C@@H](CCCCN)C(N)=O)C(C)C
B7: AT169 [hGIP(5-30)NH2[I7K]-C16diacid/7] (peptide)
peptide: TFK(C16 diacid)SDYSIAMDKIHQQDFVNWLLAQK-NH2
modifications: N-terminus assumed
SMILES: CC[C@H](C)[C@H](NC(=O)[C@H](CO)NC(=O)[C@H](Cc1ccc(O)cc1)NC(=O)[C@H](CC(=O)O)NC(=O)[C@H](CO)NC(=O)[C@H](CCCCNC(=O)CCCCCCCCCCCCCCC(=O)O)NC(=O)[C@H](Cc1ccccc1)NC(=O)[C@@H](N)[C@@H](C)O)C(=O)N[C@@H](C)C(=O)N[C@@H](CCSC)C(=O)N[C@@H](CC(=O)O)C(=O)N[C@@H](CCCCN)C(=O)N[C@H](C(=O)N[C@@H](Cc1c[nH]cn1)C(=O)N[C@@H](CCC(N)=O)C(=O)N[C@@H](CCC(N)=O)C(=O)N[C@@H](CC(=O)O)C(=O)N[C@@H](Cc1ccccc1)C(=O)N[C@H](C(=O)N[C@@H](CC(N)=O)C(=O)N[C@@H](Cc1c[nH]c2ccccc12)C(=O)N[C@@H](CC(C)C)C(=O)N[C@@H](CC(C)C)C(=O)N[C@@H](C)C(=O)N[C@@H](CCC(N)=O)C(=O)N[C@@H](CCCCN)C(N)=O)C(C)C)[C@@H](C)CC
B8: AT173 [hGIP(5-30)NH2[S11K]-C16diacid/11] (peptide)
peptide: TFISDYK(C16 diacid)IAMDKIHQQDFVNWLLAQK-NH2
modifications: N-terminus assumed
SMILES: CC[C@H](C)[C@H](NC(=O)[C@H](CCCCNC(=O)CCCCCCCCCCCCCCC(=O)O)NC(=O)[C@H](Cc1ccc(O)cc1)NC(=O)[C@H](CC(=O)O)NC(=O)[C@H](CO)NC(=O)[C@@H](NC(=O)[C@H](Cc1ccccc1)NC(=O)[C@@H](N)[C@@H](C)O)[C@@H](C)CC)C(=O)N[C@@H](C)C(=O)N[C@@H](CCSC)C(=O)N[C@@H](CC(=O)O)C(=O)N[C@@H](CCCCN)C(=O)N[C@H](C(=O)N[C@@H](Cc1c[nH]cn1)C(=O)N[C@@H](CCC(N)=O)C(=O)N[C@@H](CCC(N)=O)C(=O)N[C@@H](CC(=O)O)C(=O)N[C@@H](Cc1ccccc1)C(=O)N[C@H](C(=O)N[C@@H](CC(N)=O)C(=O)N[C@@H](Cc1c[nH]c2ccccc12)C(=O)N[C@@H](CC(C)C)C(=O)N[C@@H](CC(C)C)C(=O)N[C@@H](C)C(=O)N[C@@H](CCC(N)=O)C(=O)N[C@@H](CCCCN)C(N)=O)C(C)C)[C@@H](C)CC

Biological target: T1, human GIP receptor
Test: 125I-hGIP(1-42) competition binding, COS-7 cells expressing human GIPR, without HSA;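 note: nonspecific binding defined as radioligand bound to cells lacking the transfected receptor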
Protocol: (§1) After incubation, the cells were washed twice in ice-cold binding buffer (+/−2% HSA) and lysed using 200 mM NaOH with 1% SDS for 30 min. Nonspecific binding was determined as the binding of radioactive ligand to untransfected cells.

| Binder | Ki [nM] |
| --- | --- |
| B1 | 5 |
| B2 | 594 |
| B3 | 41.3 |
| B4 | 281 |
| B5 | 79.1 |
| B6 | 56.1 |
| B7 | 26.5 |
| B8 | 6 |

Biological target: T1, human GIP receptor
Test: cell-based or functional assay

| Binder | cAMP accumulation Fold (fold change from GIP(5-30)NH2) [fold] | cAMP accumulation IC50 [nM] | cAMP accumulation logIC50 |
| --- | --- | --- | --- |
| B1 | 0.9 | 24 | -7.62 log(M) |
| B2 | 32.4 | 891 | -6.05 log(M) |
| B3 | 5.3 | 148 | -6.83 log(M) |
| B4 | 14.1 | 389 | -6.41 log(M) |
| B5 | 1.1 | 31.6 | -7.5 log(M) |
| B6 | 0.9 | 23.4 | -7.63 log(M) |
| B7 | 3 | 81.3 | -7.09 log(M) |
| B8 | 0.3 | 9.1 | -8.04 log(M) |

Biological target: T1, human GIP receptor
Test: ratio of Ki with 2% HSA to Ki without HSA, 125I-hGIP competition binding on hGIPR COS-7 cells;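 note: nonspecific binding was defined as radioligand signal on cells lacking the receptor transfection, with cell lysates measured after washes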
Protocol: as §1

| Binder | Fold (Ki + HSA / Ki - HSA) [fold] |
| --- | --- |
| B1 | 5.8 |
| B2 | 2.2 |
| B3 | 2.3 |
| B4 | 2.8 |
| B5 | 6.3 |
| B6 | 6.1 |
| B7 | 4.8 |
| B8 | 9.7 |

Biological target: T1, human GIP receptor
Test: 125I-hGIP(1-42) competition binding, COS-7 cells expressing human GIPR, with 2% HSA;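 note: nonspecific signal taken as radioligand bound to untransfected cells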
Protocol: as §1

| Binder | Ki [nM] |
| --- | --- |
| B1 | 29 |
| B2 | 1300 |
| B3 | 97.7 |
| B4 | 807 |
| B5 | 500 |
| B6 | 342 |
| B7 | 126 |
| B8 | 58.7 |
